Assays:
[1] = biological target: T1, LILRB5 expressed on 293T cells (UniProt O75023 24-590, limits assumed); assay: flow cytometry on 293T cells transiently expressing LILRB5, APC anti-human Fc; gMFI as fold to IgG staining
T1 construct: whole, on cells; GFP-tagged, transient

[2] = biological target: T2, LILRB1-ECD-HIS (SinoBiological Cat #: 16014-H02H) (human, UniProt Q8NHL6 24-461); assay: BLI (Gator), RB1-ECD-his
T2 construct: Bought protein; also called monomeric antigen LILRB1-ECD-HIS; not shown: His tag
T2 sequence (Q8NHL6 other isoform, or with tags, fused parts or gaps H02H H02H): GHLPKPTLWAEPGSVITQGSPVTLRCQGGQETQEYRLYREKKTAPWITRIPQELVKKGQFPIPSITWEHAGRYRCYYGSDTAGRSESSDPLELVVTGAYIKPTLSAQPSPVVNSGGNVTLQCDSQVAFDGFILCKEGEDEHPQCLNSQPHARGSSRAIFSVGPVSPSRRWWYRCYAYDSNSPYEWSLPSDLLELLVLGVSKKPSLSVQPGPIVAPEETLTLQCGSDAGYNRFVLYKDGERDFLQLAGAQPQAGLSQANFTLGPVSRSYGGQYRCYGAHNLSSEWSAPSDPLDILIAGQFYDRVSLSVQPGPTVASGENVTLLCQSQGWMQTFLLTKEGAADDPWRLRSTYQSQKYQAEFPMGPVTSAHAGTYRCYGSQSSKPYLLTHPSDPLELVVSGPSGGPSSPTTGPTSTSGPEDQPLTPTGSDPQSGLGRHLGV

[3] = biological target: T3, human LILRB1 expressed on cells (human, UniProt Q8NHL6 24-650); assay: flow cytometry, CHO-LILRB1 cells; blocked ligand: APC HLA-G trimer tetramer
T3 construct: In 293T cells it was expressed from pCMV3-LILRB1-GFP; also called CHO-LILRB1; Jurkat-LILRB1
T3 sequence (Q8NHL6 other isoform, or with tags, fused parts or gaps limits assumed): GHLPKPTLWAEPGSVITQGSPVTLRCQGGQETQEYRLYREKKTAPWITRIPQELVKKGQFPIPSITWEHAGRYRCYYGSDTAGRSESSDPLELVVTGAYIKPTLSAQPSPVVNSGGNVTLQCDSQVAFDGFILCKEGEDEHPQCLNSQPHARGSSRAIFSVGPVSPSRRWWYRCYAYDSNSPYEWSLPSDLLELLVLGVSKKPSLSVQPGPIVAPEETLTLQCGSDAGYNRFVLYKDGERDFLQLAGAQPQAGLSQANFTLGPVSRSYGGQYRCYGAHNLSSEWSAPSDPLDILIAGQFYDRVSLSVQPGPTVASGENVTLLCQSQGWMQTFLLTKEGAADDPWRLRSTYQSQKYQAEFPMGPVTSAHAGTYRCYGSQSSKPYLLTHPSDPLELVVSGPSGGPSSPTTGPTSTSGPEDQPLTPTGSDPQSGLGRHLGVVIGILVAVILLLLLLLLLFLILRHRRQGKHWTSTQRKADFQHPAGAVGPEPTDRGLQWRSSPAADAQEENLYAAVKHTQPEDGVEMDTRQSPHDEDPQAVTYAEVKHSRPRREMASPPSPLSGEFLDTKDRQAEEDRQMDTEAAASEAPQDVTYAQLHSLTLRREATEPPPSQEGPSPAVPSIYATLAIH

[4] = biological target: T4, LILRA1 expressed on cells (human, UniProt O75019 17-489); assay: flow cytometry on CHO-LILRA1 cells, non-linear fit of the curves of FIG. 26E
T4 construct: whole, on cells; GFP-tagged; also called human LILRA1; CHO-LILRA1
T4 sequence (O75019 17-489): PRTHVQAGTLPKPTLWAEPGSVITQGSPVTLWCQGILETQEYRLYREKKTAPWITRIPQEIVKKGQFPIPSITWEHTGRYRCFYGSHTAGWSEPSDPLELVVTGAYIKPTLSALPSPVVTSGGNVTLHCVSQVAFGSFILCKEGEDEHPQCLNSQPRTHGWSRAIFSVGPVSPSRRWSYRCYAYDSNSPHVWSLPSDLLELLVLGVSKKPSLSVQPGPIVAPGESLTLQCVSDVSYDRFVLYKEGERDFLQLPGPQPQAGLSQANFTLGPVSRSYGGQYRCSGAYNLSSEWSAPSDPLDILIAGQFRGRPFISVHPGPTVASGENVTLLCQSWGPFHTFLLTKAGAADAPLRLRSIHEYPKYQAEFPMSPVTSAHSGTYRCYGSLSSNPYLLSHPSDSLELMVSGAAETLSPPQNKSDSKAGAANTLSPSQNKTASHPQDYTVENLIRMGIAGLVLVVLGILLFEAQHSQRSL

[5] = biological target: T5, human LILRB2 expressed on cells (human, UniProt Q8N423 22-597); assay: flow cytometry, Jurkat-LILRB2 cells; blocked ligand: APC HLA-G monomer tetramer
T5 construct: In 293T cells it was expressed from pCMV3-LILRB2-GFP; also called CHO-LILRB2; Jurkat-LILRB2
T5 sequence (Q8N423 other isoform, or with tags, fused parts or gaps limits assumed): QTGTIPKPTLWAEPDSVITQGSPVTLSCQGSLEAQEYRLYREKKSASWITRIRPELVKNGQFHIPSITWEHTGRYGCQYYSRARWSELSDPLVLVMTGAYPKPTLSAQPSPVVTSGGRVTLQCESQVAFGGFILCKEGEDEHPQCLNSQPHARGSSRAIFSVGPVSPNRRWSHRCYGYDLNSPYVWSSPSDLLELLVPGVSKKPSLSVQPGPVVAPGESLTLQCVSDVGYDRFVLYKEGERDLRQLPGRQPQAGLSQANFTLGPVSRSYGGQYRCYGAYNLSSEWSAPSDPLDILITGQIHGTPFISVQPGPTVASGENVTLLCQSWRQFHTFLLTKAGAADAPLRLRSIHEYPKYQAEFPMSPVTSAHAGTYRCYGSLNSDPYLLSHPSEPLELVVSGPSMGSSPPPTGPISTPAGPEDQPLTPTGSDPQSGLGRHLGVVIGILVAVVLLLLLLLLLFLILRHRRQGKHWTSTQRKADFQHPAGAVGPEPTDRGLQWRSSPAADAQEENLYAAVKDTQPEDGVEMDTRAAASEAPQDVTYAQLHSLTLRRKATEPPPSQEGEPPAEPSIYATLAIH

[6] = biological target: T2, LILRB1-ECD-HIS (SinoBiological Cat #: …); assay: SPR (Carterra), LILRB1-ECD-his
[7] = biological target: T3, human LILRB1 expressed on cells; assay: flow cytometry, Jurkat-LILRB1 cells
[8] = biological target: T4, LILRA1 expressed on cells; assay: flow cytometry on CHO-LILRA1 cells (CHO-RA1), titrated antibody, labelled anti-human Fc, gMFI
[9] = biological target: T5, human LILRB2 expressed on cells; assay: flow cytometry, Jurkat-LILRB2 cells
[10] = biological target: T5, human LILRB2 expressed on cells; assay: flow cytometry on CHO-LILRB2 cells, non-linear fit of the curves of FIG. 26B
[11] = biological target: T6, cynomolgus monkey putative LILRB2 (antigen of the Gator measurement) (cynomolgus monkey); assay: BLI (Gator), cyno RB2-his
T6 construct: also called cynomolgus monkey LILRB2

[12] = biological target: T3, human LILRB1 expressed on cells; assay: flow cytometry, CHO-LILRB1 cells
[13] = biological target: T7, LILRB2-ECD-HIS (SinoBiological Cat #: 14132-H02H) (human, UniProt Q8N423 22-460); assay: SPR (Carterra), LILRB2-ECD-his
T7 construct: Bought protein; also called monomeric antigen LILRB2-ECD-HIS; not shown: His tag
T7 sequence (Q8N423 other isoform, or with tags, fused parts or gaps H02H H02H): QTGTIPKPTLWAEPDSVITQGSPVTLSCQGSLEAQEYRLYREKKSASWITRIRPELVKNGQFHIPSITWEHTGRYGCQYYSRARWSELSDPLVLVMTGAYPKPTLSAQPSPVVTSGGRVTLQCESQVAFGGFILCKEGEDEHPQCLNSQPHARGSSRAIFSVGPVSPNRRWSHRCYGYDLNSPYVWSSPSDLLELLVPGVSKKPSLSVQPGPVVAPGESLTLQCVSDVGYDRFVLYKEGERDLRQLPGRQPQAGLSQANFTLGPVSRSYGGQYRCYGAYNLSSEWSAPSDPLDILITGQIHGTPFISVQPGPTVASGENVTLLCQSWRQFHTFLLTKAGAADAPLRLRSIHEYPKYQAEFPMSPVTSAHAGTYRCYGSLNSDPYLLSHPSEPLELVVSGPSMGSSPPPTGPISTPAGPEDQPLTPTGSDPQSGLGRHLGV

[14] = biological target: T5, human LILRB2 expressed on cells; assay: flow cytometry, Jurkat-LILRB2 cells; remark: listed apart in the source
[15] = biological target: T8, LILRA3 expressed on 293T cells (UniProt Q8N6C8 24-439, limits assumed); assay: flow cytometry on 293T cells transiently expressing LILRA3, APC anti-human Fc; gMFI as fold to IgG staining
T8 construct: whole, on cells; GFP-tagged, transient
T8 sequence (Q8N6C8 24-439 limits assumed): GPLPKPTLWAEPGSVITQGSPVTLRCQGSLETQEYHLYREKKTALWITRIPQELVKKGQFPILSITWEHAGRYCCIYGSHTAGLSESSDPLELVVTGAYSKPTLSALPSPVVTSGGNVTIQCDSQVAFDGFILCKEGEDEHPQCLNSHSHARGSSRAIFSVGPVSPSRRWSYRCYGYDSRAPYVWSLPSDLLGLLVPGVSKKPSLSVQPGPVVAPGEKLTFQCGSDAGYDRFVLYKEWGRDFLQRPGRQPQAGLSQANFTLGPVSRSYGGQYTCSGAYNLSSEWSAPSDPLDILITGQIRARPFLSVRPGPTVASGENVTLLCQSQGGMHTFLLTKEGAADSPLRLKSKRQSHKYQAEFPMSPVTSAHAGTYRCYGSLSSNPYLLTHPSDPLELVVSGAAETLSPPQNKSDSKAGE

[16] = biological target: T3, human LILRB1 expressed on cells; assay: flow cytometry, CHO-LILRB1 cells; remark: listed apart in the source
[17] = biological target: T9, cynomolgus (monkey) LILRB2 expressed on CHO cells (cynomolgus monkey); assay: flow cytometry on CHO-cynoLILRB2 cells, non-linear fit of the curves of FIG. 26D
T9 construct: whole, on cells; Putative orthologue; also called cynoLILRB2; cynoRB2

[18] = biological target: T2, LILRB1-ECD-HIS (SinoBiological Cat #: …); assay: BLI (Gator Prime), antibody on anti-hIgG Fc probe, monomeric LILRB1-ECD-HIS in solution
[19] = biological target: T5, human LILRB2 expressed on cells; assay: flow cytometry, Jurkat-LILRB2 cells; blocked ligand: APC HLA-G monomer tetramer; remark: listed apart in the source
[20] = biological target: T10, LILRA4 expressed on 293T cells (UniProt P59901 24-499, limits assumed); assay: flow cytometry on 293T cells transiently expressing LILRA4, antibody 5 µg/mL, APC anti-human Fc; gMFI as fold to IgG staining
T10 construct: whole, on cells; GFP-tagged, transient
T10 sequence (P59901 24-499 limits assumed): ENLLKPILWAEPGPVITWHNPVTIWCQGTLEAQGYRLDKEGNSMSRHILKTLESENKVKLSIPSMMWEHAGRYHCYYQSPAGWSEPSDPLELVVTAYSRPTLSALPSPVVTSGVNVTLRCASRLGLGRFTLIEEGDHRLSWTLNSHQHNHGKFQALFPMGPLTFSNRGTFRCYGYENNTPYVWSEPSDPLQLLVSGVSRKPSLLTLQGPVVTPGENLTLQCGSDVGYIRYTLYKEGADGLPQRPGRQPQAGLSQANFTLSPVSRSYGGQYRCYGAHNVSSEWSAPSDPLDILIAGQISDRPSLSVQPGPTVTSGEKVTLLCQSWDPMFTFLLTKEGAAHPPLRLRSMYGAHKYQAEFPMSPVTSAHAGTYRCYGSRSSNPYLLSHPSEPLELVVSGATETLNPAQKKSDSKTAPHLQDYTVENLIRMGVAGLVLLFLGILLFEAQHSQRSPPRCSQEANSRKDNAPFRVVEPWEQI

[21] = biological target: T7, LILRB2-ECD-HIS (SinoBiological Cat #: …); assay: BLI (Gator), trace labelled 5 µg/mL; unit taken from the Average KD line
[22] = biological target: T11, LILRB3 expressed on cells (human, UniProt O75022 24-631); assay: flow cytometry on CHO-LILRB3 cells, non-linear fit of the curves of FIG. 26C
T11 construct: whole, on cells; Expressed with a GFP tag from the bought plasmid; also called human LILRB3; CHO-LILRB3

[23] = biological target: T7, LILRB2-ECD-HIS (SinoBiological Cat #: …); assay: BLI (Gator), RB2-ECD-his

T1 sequence (O75023 24-590 limits assumed): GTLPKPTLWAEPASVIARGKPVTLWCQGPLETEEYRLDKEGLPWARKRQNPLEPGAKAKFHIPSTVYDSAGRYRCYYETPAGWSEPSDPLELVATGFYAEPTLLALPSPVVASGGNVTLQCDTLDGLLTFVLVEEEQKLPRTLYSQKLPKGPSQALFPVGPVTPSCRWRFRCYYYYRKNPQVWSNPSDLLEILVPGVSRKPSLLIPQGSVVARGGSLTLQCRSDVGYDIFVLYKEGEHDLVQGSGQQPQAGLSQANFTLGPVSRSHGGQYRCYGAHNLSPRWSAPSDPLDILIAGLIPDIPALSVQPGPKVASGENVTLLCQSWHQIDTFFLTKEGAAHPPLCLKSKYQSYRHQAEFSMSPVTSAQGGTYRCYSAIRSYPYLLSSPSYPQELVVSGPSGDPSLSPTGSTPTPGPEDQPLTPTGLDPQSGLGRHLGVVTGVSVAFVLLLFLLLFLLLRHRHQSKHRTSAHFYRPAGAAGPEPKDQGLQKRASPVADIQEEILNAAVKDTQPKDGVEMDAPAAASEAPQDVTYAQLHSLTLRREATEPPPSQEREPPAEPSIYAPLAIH

B1: D2M002-002 (antibody, V domains shown)
VH: EVQLQQSGPELVKPGASVKMSCKASGYTFTRYVMHWVKQKPGQGLEWIGYINPNNDGTKYNEKFKGKVTLTSDKSSSTAYMELSSLTSEDSAVYYCARGDLEILPYYDHARNAMDYWGQGTSVTVSS
VL: DVQMIQSPASLSASVGETVTITCRASENIYSYLAWYQQKQGKSPQLLVYNAKTLAEGVPSRFSGSGSGTQFSLKINSLQPEDFGSYYCQHFWSTPPTFGGGTKLEIK
notes: Hit from immunised mice; also called clone #2; anti-LILRB1/2 clone #2
[1]
  binding result: no binding (tested: 5 µg/mL)
[2]
  Kd: 2.12 nM
[3]
  IC50: 0.208 µg/mL
[4]
  EC50: 0.474 µg/mL
  MaxMFI: 19500
[5]
  IC50 (read off the curve): ~0.06 µg/mL
[6]
  Kd: 5.67 nM
  koff: 0.000347 s⁻¹
  kon: 61300 M⁻¹ s⁻¹
[7]
  EC50: 0.754 µg/mL
[8]
  EC50 (read off the curve): ~0.5 µg/mL
[9]
  EC50 (read off the curve): ~0.3 µg/mL
[10]
  EC50: 0.128 µg/mL
  MaxMFI: 32600
[11]
  Kd: 1.36 nM
[12]
  EC50: 0.326 µg/mL
[13]
  Kd: 0.44 nM
  koff: 0.0002 s⁻¹
  kon: 456000 M⁻¹ s⁻¹
[14]
  EC50: 0.258 µg/mL
[15]
  binding result: no binding (tested: 5 µg/mL)
[16]
  EC50: 0.439 µg/mL
  gMFI (max): 35700
[17]
  EC50: 2.85 µg/mL
[18]
  Kd: 3.4 nM
[19]
  IC50: 0.065 µg/mL
[20]
  binding result: binds
[21]
  Kd: 0.351 nM
[22]
  EC50: 12.8 µg/mL
[23]
  Kd: 0.469 nM
